The nature of the series: Rheological properties at adjusted salt ionic strength. Type of series: physicochemical. The conditions noted are these: for ionic strength adjustment up to which the rheological property of the solution increases (decreases above): 1% solutions, storage modulus at 1 rad/sec. As for the experimental part: Based on the visual observation of the effect of salt ionic strength on the properties of the peptide solutions, the effect on the rheological properties of the peptide solutions after adjusting their ionic strength level with NaCl to 0.7 M (PuraMatrix®), 0.2 M (KLD12) or 0.02 M (IEIK13), which is closely below the critical ionic strength at which each peptide becomes cloudy, was evaluated. If the ionic strength levels with NaCl of peptide solutions are higher than 0.9 M (PuraMatrix®), 0.3 M (KLD12) or 0.03 M (IEIK13), the peptide solution begin phase separation becoming cloudy and weak. The rheological property of PuraMatrix®, KLD12 and IEIK13 solutions was higher after adjusting their ionic strength level with NaCl to 0.7 M (PuraMatrix®), 0.2 M (KLD12) or 0.02 M (IEIK13), The results are shown in FIG. 10 for KLD12 1%, FIG. 11 for IEIK13 1%, and FIG. 12 for PuraMatrix® 1%, respectively. Frequency sweep tests were performed from 1 rad/s to 10 rad/s at 1 Pa.
Based on the results of the effect on the rheological properties of the peptide solutions after adjusting their ionic strength level with NaCl to 0.7 M (PuraMatrix®), 0.2 M (KLD12) or 0.02 M (IEIK13), the effect on the rheological properties of the peptide solution at various salt ionic strengths was evaluated. […] The results are shown in FIG. 13 for PuraMatrix® 1% solution and in FIG. 14 for IEIK13 1% solution. Frequency sweep tests were performed from 1 rad/sec to 10 rad/sec at 1 Pa and the storage modulus at 1 rad/sec was selected for data.
Based on the results of the effect on the rheological properties of the peptide solutions after adjusting their ionic strength levels, the effect on the rheological properties of the peptide hydrogels after DMEM treatment for 10 min was evaluated. […] The results are shown in FIG. 15 for PuraMatrix® 1% hydrogels and in FIG. 16 for IEIK13 1% hydrogels, both after DMEM treatment for 10 min. Frequency sweep tests were performed from 1 rad/sec to 10 rad/sec at 1 Pa and the storage modulus at 1 rad/sec was selected for data.
Based on the results of the effect on the rheological properties of the peptide solutions and hydrogels after adjusting their ionic strength levels with NaCl, the effect of various salts (KCl, MgCl2, and CaCl2) was also evaluated. The rheological property of PuraMatrix® solutions increases with ionic strength adjustment at 0.15 M of all the salts. Increases of the rheological property of PuraMatrix® solutions with various salts were not predominantly different. However, increases of the rheological property of PuraMatrix® solutions may vary depending on the salting out constant, K of each salt. Constant K is a constant in Cohen's equation: log S=B−KI, where S is solubility, B is idealized solubility, K is salting out constant, and I is ionic strength. With a higher value of constant K and ionic strength of salts, solubility of the peptide may decrease resulting in strong peptide self-assembly with increased hydrophobic effect and higher rheological properties of the peptide solution. The constant K of NaCl may be higher than the other salts. […] The results are shown in FIG. 17 for PuraMatrix® 1% solution before DMEM treatment, and in FIG. 18 for PuraMatrix® 1% hydrogels after DMEM treatment for 10 min.
In accordance with one or more embodiments, IEIK13, KLD12, and PuraMatrix® may be dissolved both in salt buffer such as NaCl and at an elevated pH level adjusted with alkali salt buffer such as NaOH to keep their salt ionic strength under their critical salt points as well as their pH level to about 2.5˜4.0, so that they may have stiffer properties. With respect to PuraMatrix®, […] and IEIK13, the peptide solutions are still clear with 0.9% NaCl (ionic strength: 0.15 M) at pH 3.4 adjusted with NaOH. […] The effect of salt ionic strength and pH adjustment on the rheological properties of PuraMatrix® 2.5% solution are shown in FIG. 20. […]

Where [1] appears, read: 1% hydrogels after DMEM treatment for 10 min.

Where no end group is shown, it is not given here.

For the substance “Arg-Ala-Asp-Ala-Arg-Ala-Asp-Ala-Arg-Ala-Asp-Ala-Arg-Ala-Asp-Ala [PuraMatrix®]”, the “ionic strength adjustment up to which the rheological property of the solution increases (decreases above)” value was “up to 0.7 M”; the “ionic strength level with NaCl above which the solution begins phase separation becoming cloudy and weak” value (from here on “ionic strength level”) is on record as “higher than 0.9 M”. The “ionic strength adjustment up to which the rheological property of hydrogels increased (decreases above)” value under setting [1] is on record as “up to 0.7 M”. Besides, under “1% hydrogels after DMEM treatment for 10 min, 0.15 M ionic strength”, the “rheological property of hydrogels with ionic strength adjustment with various salts” value was “comparable to increases of the rheological property of PuraMatrix® solutions with various salts”. For the same substance, the “rheological property of solutions with NaCl compared with other salts” value (1% solution, 0.15 M ionic strength) was “slightly higher than those with KCl and CaCl2”. For the same substance, the “rheological property of solutions with ionic strength adjustment” value (1% solution, 0.15 M ionic strength of all the salts (NaCl, KCl, MgCl2, CaCl2)) is recorded as “increases”. Moreover, the rheological property result (2.5% solution with 0.9% NaCl (ionic strength: 0.15 M) at pH 3.4) was “stiffer than those of PuraMatrix control and PuraMatrix with only NaCl 0.9%”.
For the substance “Ile-Glu-Ile-Lys-Ile-Glu-Ile-Lys-Ile-Glu-Ile-Lys-Ile [IEIK13]”, the “ionic strength adjustment up to which the rheological property of the solution increases (decreases above)” value is listed as “up to 0.03 M”; the “ionic strength level” value is over 0.03 M. The “rheological property of hydrogels with ionic strength adjustment” value under setting [1] was “did not significantly change with ionic strength adjustment up to 0.025 M, while decreases above 0.03 M”.
KLDLKLDLKLDL [KLD12]: the “ionic strength level” value was over 0.3 M.

Values taken from patent US10245299B2, “Autoassembling peptides for the treatment of pulmonary bulla” (3-D MATRIX, LTD., priority 2014, dated 2019).
